Experimental findings from patent US20250281611A1 (BIOSCEPTRE AUST, published 2025) are described below.

For test [1], the target named is T1, CD79B (UniProt P40259 29-229, limits assumed).
T1 construct: whole, on cells
T1 sequence (looked up): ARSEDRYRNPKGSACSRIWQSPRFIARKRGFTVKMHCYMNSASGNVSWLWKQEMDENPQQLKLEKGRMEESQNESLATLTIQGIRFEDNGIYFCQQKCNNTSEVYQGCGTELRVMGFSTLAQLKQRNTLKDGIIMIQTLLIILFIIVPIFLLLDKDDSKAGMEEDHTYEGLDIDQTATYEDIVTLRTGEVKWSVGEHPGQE
Put plainly: flow cytometry, JeKo-1 cells. (Flow cytometry measures light scatter and fluorescence of single cells or particles in a stream.)

In test [2] the target is T2, CD70 (UniProt P32970 1-193, limits assumed).
T2 construct: whole, on cells
T2 sequence (looked up): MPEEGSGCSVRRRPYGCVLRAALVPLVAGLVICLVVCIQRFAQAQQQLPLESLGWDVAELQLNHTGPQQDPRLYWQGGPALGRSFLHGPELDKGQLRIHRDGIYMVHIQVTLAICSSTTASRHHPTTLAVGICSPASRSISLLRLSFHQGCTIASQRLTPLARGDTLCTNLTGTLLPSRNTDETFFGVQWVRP
Put plainly: flow cytometry, Raji cells.

The target of test [3] is T3, CD22 (UniProt P20273 20-847, limits assumed).
T3 construct: whole, on cells
Put plainly: flow cytometry, Raji cells.

Test [4] addresses T4, ROR1 (UniProt Q01973 30-937, limits assumed).
T4 construct: whole, on cells
Put plainly: flow cytometry, JeKo-1 cells.

In test [5] the target is T5, BCMA (UniProt Q02223 1-184, limits assumed).
T5 construct: whole, on cells
T5 sequence (looked up): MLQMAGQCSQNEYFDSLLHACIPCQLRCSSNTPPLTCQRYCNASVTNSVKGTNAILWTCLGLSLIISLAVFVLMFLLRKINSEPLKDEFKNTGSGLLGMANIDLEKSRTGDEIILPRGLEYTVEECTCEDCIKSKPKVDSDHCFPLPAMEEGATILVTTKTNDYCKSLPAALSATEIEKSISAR
Put plainly: flow cytometry, RPMI 8226 cells.

In test [6] the target is T6, CD123 (UniProt P26951 19-378, limits assumed).
T6 construct: whole, on cells; also called IL3RA
Put plainly: flow cytometry, MOLM-13 cells.

In test [7] the target is T7, CD135 (UniProt P36888 27-993, limits assumed).
T7 construct: whole, on cells; also called FLT-3
Put plainly: flow cytometry, MOLM-13 cells.

In test [8] the target is T8, EGFR (UniProt P00533 25-1210).
T8 construct: whole, on cells
Put plainly: flow cytometry, MDA-MB 231 and PC-3 cells.

T6 sequence (P26951 19-378 limits assumed): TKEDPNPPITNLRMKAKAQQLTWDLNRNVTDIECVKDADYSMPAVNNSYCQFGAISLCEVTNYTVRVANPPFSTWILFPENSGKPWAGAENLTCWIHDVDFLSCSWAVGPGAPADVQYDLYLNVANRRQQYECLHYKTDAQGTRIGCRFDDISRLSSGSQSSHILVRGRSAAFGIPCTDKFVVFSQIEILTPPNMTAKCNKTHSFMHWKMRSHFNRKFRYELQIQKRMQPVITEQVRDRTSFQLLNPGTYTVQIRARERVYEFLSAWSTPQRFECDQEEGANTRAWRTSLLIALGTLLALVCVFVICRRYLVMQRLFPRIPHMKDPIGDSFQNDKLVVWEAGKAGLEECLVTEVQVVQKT

B1: CD79B bridging molecule (E200 + CD79B binder, Polatuzumab, B025) (Fab, V domains shown)
VH: EVQLVESGGGLVQPGGSLRLSCAASGYTFSSYWIEWVRQAPGKGLEWIGEILPGGGDTNYNEIFKGRATFSADTSKNTAYLQMNSLRAEDTAVYYCTRRVPIRLDYWGQGTLVTVSS
VL: DIQLTQSPSSLSASVGDRVTITCKASQSVDYEGDSFLNWYQQKPGKAPKLLIYAASNLESGVPSRFSGSGSGTDFTLTISSLQPEDFATYYCQQSNEDPLTFGQGTKVEIKR
Consider B1, for which the binding result in test [1] is “binds”.

B2: CD70 bridging molecule (E200 + CD70 binder, Cusatuzumab, B028) (Fab, V domains shown)
VH: EVQLVESGGGLVQPGGSLRLSCAASGFTFSVYYMNWVRQAPGKGLEWVSDINNEGGTTYYADSVKGRFTISRDNSKNSLYLQMNSLRAEDTAVYYCARDAGYSNHVPIFDSWGQGTLVTVSS
VL: SQAVVTQEPSLTVSPGGTVTLTCGLKSGSVTSDNFPTWYQQTPGQAPRLLIYNTNTRHSGVPDRFSGSILGNKAALTITGAQADDEAEYFCALFISNPSVEFGGGTQLTVLK
With B2, the binding result in test [2] is “binds”.

B3: CD22 bridging molecule (E200 + CD22 binder, m971-L7, B023) (Fab, V domains shown)
VH: QVQLQQSGPGMVKPSQTLSLTCAISGDSVSSNSVAWNWIRQSPSRGLEWLGRTYYRSTWYNDYAVSMKSRITINPDTNKNQFSLQLNSVTPEDTAVYYCAREVTGDLEDAFDIWGQGTMVTVSS
VL: DIQMIQSPSSLSASVGDRVTITCRASQTIWSYLNWYRQRPGEAPNLLIYAASSLQSGVPSRFSGRGSGTDFTLTISSLQAEDFATYYCQQSYSIPQTFGQGTKLEIKR
As for B3, in test [3], the binding result is reported as “binds”.

B4: ROR1 bridging molecule (E200 + ROR-1 binder, clone D10v3, B044) (Fab, V domains shown)
VH: QVQLKESGPGLVAPSQTLSITCTVSGFSLTSYGVHWVRQPPGKGLEWLGVIWAGGFTNYNSALKSRLSISKDNSKSQVLLKMTSLQTDDTAMYYCARRGSSYSMDYWGQGTSVTVSS
VL: EIVLSQSPAITAASLGQKVTITCSASSNVSYIHWYQQRSGTSPRPWIYEISKLASGVPVRFSGSGSGTSYSLTISSMEAEDAAIYYCQQWNYPLITFGSGTKLEIQR
As for B4, the binding result in test [4] is on record as “binds”.

B5: BCMA bridging molecule (E200 + BCMA binder, clone CA8 J9M0, B039) (Fab, V domains shown)
VH: QVQLVQSGAEVKKPGSSVKVSCKGSGYTFTNYWMHWVRQAPGQGLEWIGATYRGHSDTYYNQKFKGRATLTADTSTSTAYMELSSLRSEDTAVYYCTRGAIYDGYDVLDNWGQGTLVTVSS
VL: DIQMTQSPSSLSASVGDRVTITCSASQDISNYLNWYQQKPGKAPKLLIYYTSNLHSGVPSRFSGSGSGTDFTLTISSLQPEDFATYYCQQYRKLPWTFGQGTKLEIKR
In the case of B5, in test [5], the binding result is reported as “binds”.

B6: CD123 bridging molecule (E200 + CD123 binder, clone 32716, B042) (Fab, V domains shown)
VH: QIQLVQSGPELKKPGETVKISCKASGYIFTNYGMNWVKQAPGKSFKWMGWINTYTGESTYSADFKGRFAFSLETSASTAYLHINDLKNEDTATYFCARSGGYDPMDYWGQGTSVTVSS
VL: DIVLTQSPASLAVSLGQRATISCRASESVDNYGNTFMHWYQQKPGQPPKLLIYRASNLESGIPARFSGSGSRTDFTLTINPVEADDVATYYCQQSNEDPPTFGAGTKLELKR
Take B6: in test [6], the binding result was “binds”.

B7: CD135 bridging molecule (E200 + CD135 binder, clone 4G8, B041) (Fab, V domains shown)
VH: QVQLQQPGAELVKPGASLKLSCKSSGYTFTSYWMHWVRQRPGHGLEWIGEIDPSDSYKDYNQKFKDKATLTVDRSSNTAYMHLSSLTSDDSAVYYCARAITTTPFDFWGQGTTLTVSS
VL: DIVLTQSPATLSVTPGDSVSLSCRASQSISNNLHWYQQKSHESPRLLIKYASQSISGIPSRFSGSGSGTDFTLSINSVETEDFGVYFCQQSNTWPYTFGGGTKLEIKR
In the case of B7, the binding result in test [7] is listed as “binds”.

B8: EGFR bridging molecule (E200 + EGFR binder, Matuzumab, B035) (Fab, V domains shown)
VH: QVQLVQSGAEVKKPGASVKVSCKASGYTFTSHWMHWVRQAPGQGLEWIGEFNPSNGRTNYNEKFKSKATMTVDTSTNTAYMELSSLRSEDTAVYYCASRDYDYDGRYFDYWGQGTLVTVSS
VL: DIQMTQSPSSLSASVGDRVTITCSASSSVTYMYWYQQKPGKAPKLLIYDTSNLASGVPSRFSGSGSGTDYTFTISSLQPEDIATYYCQQWSSHIFTFGQGTKVEIKR
Consider B8, for which the binding result in test [8] is “binds”.
